According to PMC7979726 (Nature Communications, 2021):

Molecular target: T1, Mcm3 (S. cerevisiae, UniProt P24279 1-971)
T1 construct: Mcm3, S. cerevisiae; native protein without extra amino acids after SUMO cleavage; source: Champion pET SUMO Protein Expression System (Invitrogen); purified individually; protocols in Supplementary Data; not shown: SUMO, N-terminal, cleaved
Assay: SEC; individually purified subunits mixed and the complex (Mcm5/3/7, Mcm2/6/4 or MCM-Cdt1) isolated by gel filtration
Settings: both partners purified

T1 sequence (P24279 whole entry): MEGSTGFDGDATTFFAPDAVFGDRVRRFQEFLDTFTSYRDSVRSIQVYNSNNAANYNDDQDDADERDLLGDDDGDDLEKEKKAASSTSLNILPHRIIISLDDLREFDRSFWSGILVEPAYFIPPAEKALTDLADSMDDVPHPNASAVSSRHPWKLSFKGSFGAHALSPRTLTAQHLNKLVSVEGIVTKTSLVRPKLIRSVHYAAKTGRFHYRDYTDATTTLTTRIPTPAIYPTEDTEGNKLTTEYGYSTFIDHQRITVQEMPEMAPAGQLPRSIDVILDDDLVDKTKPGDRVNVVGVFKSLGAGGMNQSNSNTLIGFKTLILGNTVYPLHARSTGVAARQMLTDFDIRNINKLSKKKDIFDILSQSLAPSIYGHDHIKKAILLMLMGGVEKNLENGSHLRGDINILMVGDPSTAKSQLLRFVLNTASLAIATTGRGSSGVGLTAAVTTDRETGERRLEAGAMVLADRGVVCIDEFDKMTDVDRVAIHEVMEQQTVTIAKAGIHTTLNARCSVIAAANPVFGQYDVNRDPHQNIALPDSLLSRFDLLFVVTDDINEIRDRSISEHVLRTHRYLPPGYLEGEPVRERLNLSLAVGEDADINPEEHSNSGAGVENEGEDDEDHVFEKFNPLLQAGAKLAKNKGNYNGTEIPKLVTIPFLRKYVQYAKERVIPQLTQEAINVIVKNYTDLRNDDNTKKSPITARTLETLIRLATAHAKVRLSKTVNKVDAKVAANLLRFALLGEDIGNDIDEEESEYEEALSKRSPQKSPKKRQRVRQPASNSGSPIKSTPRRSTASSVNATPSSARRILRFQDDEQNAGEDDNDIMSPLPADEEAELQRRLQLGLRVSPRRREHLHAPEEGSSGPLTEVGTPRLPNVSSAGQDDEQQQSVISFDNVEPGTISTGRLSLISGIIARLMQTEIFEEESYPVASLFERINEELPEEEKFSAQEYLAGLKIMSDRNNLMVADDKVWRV

B1: Mcm7 (natural protein, S. cerevisiae, UniProt P38132 1-845, looked up)
chain: MSAALPSIQLPVDYNNLFNEITDFLVTFKQDTLSSDATRNENEDENLDAENIEQHLLEKGPKYMAMLQKVANRELNSVIIDLDDILQYQNEKFLQGTQADDLVSAIQQNANHFTELFCRAIDNNMPLPTKEIDYKDDVLDVILNQRRLRNERMLSDRTNEIRSENLMDTTMDPPSSMNDALREVVEDETELFPPNLTRRYFLYFKPLSQNCARRYRKKAISSKPLSVRQIKGDFLGQLITVRGIITRVSDVKPAVEVIAYTCDQCGYEVFQEVNSRTFTPLSECTSEECSQNQTKGQLFMSTRASKFSAFQECKIQELSQQVPVGHIPRSLNIHVNGTLVRSLSPGDIVDVTGIFLPAPYTGFKALKAGLLTETYLEAQFVRQHKKKFASFSLTSDVEERVMELITSGDVYNRLAKSIAPEIYGNLDVKKALLLLLVGGVDKRVGDGMKIRGDINVCLMGDPGVAKSQLLKAICKISPRGVYTTGKGSSGVGLTAAVMKDPVTDEMILEGGALVLADNGICCIDEFDKMDESDRTAIHEVMEQQTISISKAGINTTLNARTSILAAANPLYGRYNPRLSPLDNINLPAALLSRFDILFLMLDIPSRDDDEKLAEHVTYVHMHNKQPDLDFTPVEPSKMREYIAYAKTKRPVMSEAVNDYVVQAYIRLRQDSKREMDSKFSFGQATPRTLLGIIRLSQALAKLRLADMVDIDDVEEALRLVRVSKESLYQETNKSKEDESPTTKIFTIIKKMLQETGKNTLSYENIVKTVRLRGFTMLQLSNCIQEYSYLNVWHLINEGNTLKFVDDGTMDTDQEDSLVSTPKLAPQTTASANVSAQDSDIDLQDA
notes: Mcm7, S. cerevisiae; native protein without extra amino acids after SUMO cleavage; source: Champion pET SUMO Protein Expression System (Invitrogen); purified individually; protocols in Supplementary Data; not shown: SUMO, N-terminal, cleaved
binding result: binds
